Common to all, as to details: remark: other sources report otherwise
The target in assay [1] is T1, SARS-CoV-2 omicron variant B.1.1.529 RBD domain (SARS-CoV-2). Briefly: ELISA. Set-up: unit not given beside the values. On the technique in general: An ELISA detects its analyte on a solid surface through an enzyme-linked reagent.
The target in assay [2] is T2, SARS-CoV-2 omicron variant B.1.1.529 Spike ectodomain (tri-S, HexaPro) (SARS-CoV-2), P0DTC2. Briefly: ELISA. Set-up: unit not given beside the values.
The target in assay [3] is SARS-CoV-2 delta plus variant RBD (SARS-CoV-2). Put plainly: ELISA. The arrangement: unit not given beside the values.
Assay [4] addresses T3, SARS-CoV-2 delta variant B.1.617.2/3 RBD domain (SARS-CoV-2). Put plainly: ELISA. The arrangement: unit not given beside the values.
Assay [5] deals with T4, SARS-CoV-2 kappa variant B.1.617.1/3 RBD domain (SARS-CoV-2). Put plainly: ELISA. The arrangement: unit not given beside the values.
Assay [6] has as its target SARS-CoV-2 delta plus variant RBD (SARS-CoV-2). Put plainly: RBD-ACE2 competition ELISA. The arrangement: unit not given beside the values.
For assay [7], the target named is T3, SARS-CoV-2 delta variant B.1.617.2/3 …. Put plainly: RBD-ACE2 competition ELISA. Set-up: unit not given beside the values.
Assay [8] concerns the target T4, SARS-CoV-2 kappa variant B.1.617.1/3 …. Put plainly: RBD-ACE2 competition ELISA. The arrangement: unit not given beside the values.
Assay [9] concerns the target T2, SARS-CoV-2 omicron variant B.1.1.529 …. Put plainly: tri-S/ACE2 blocking ELISA [B].
Assay [10] addresses SARS-CoV-2 delta plus variant RBD (SARS-CoV-2). Briefly: ELISA. The arrangement: unit not given beside the values. The source holds these as a separate data set.
In assay [11] the target is T3, SARS-CoV-2 delta variant B.1.617.2/3 …. Briefly: ELISA. Set-up: unit not given beside the values. This is another data set of the same source.
Assay [12] addresses T4, SARS-CoV-2 kappa variant B.1.617.1/3 …. Put plainly: ELISA. The arrangement: unit not given beside the values. This is another data set of the same source.
The target in assay [13] is SARS-CoV-2 delta plus variant RBD (SARS-CoV-2). Put plainly: RBD/ACE2 blocking ELISA.
Assay [14] deals with T3, SARS-CoV-2 delta variant B.1.617.2/3 …. Put plainly: RBD/ACE2 blocking ELISA.
Assay [15] addresses SARS-CoV-2 delta plus variant RBD (SARS-CoV-2). Put plainly: ELISA.
Assay [16] addresses T4, SARS-CoV-2 kappa variant B.1.617.1/3 …. Put plainly: ELISA.
Assay [17] has as its target T1, SARS-CoV-2 omicron variant B.1.1.529 …. Briefly: ELISA; unit from paragraph 452, none printed in the heatmap.
Assay [18] deals with T4, SARS-CoV-2 kappa variant B.1.617.1/3 …. Briefly: RBD/ACE2 blocking ELISA.

B1: Cv2.1353 (recombinant human IgG1) (antibody)
heavy: EVQLVESGGGLVQPGGSLRLSCAASGVTVSSNYMNWVRQAPGKGLEWVSVIYSGGSTFYADSVKGRFIISRDNSKNTLYLQMNSLKTEDTAVYYCARDLGPMGFDIWGQGTMVTVSSASTKGPSVFPLAPSSKSTSGGTAALGCLVKDYFPEPVTVSWNSGALTSGVHTFPAVLQSSGLYSLSSVVTVPSSSLGTQTYICNVNHKPSNTKVDKKVEPKSCDKTHTCPPCPAPELLGGPSVFLFPPKPKDTLMISRTPEVTCVVVDVSHEDPEVKFNWYVDGVEVHNAKTKPREEQYNSTYRVVSVLTVLHQDWLNGKEYKCKVSNKALPAPIEKTISKAKQPREPQVYTLPPSRDELTKNQVSLTCLVKGFYPSDIAVEWESNGQPENNYKTTPPVLDSDGSFFLYSKLTVDKSRWQQGNVFSCSVMHEALHNHYTQKSLSLSPGK
light: DIQMTQSPSFLSASVGDRVTITCRASQGISSYLAWYQQKPGKAPKLLIYAASTLQSGVPSRFSGSGSGTEFTLTISSLQPEDFATYYCQQLNSDPPVTFGPGTKVDIKRTVAAPSVFIFPPSDEQLKSGTASVVCLLNNFYPREAKVQWKVDNALQSGNSQESVTEQDSKDSTYSLSSTLTLSKADYEKHKVYACEVTHQGLSSPVTKSFNRGEC
Regarding B1, the AUC turned out to be 3 in assay [1] and 7 in assay [2]. Also, the AUC (RBD bind.) in assay [3], in assay [4] and in assay [5] was 13 throughout. The AUC (RBD block.) is 142 in [6], 97 in [7] and 112 in assay [8]. In addition, the AUC of blocking in assay [9] stood at 4.

B2: COV2-2130 (antibody, V domains shown)
VH: EVQLVESGGGLVKPGGSLRLSCAASGFTFRDVWMSWVRQAPGKGLEWVGRIKSKIDGGTTDYAAPVKGRFTISRDDSKNTLYLQMNSLKTEDTAVYYCTTAGSYYYDTVGPGLPEGKFDYWGQGTLVTVSS
VL: not shown
With B2, the results for the AUC in assay [10], in assay [11] and in [12] were 3, 3 and 4, respectively. In addition, the % binding inhibition came out at 88% in assay [13] and 77% in assay [14].

B3: Cilgavimab (antibody, V domains shown)
VH: EVQLVESGGGLVKPGGSLRLSCAASGFTFRDVWMSWVRQAPGKGLEWVGRIKSKIDGGTTDYAAPVKGRFTISRDDSKNTLYLQMNSLKTEDTAVYYCTTAGSYYYDTVGPGLPEGKFDYWGQGTLVTVSS
VL: not shown
For orientation: EC50 means the concentration at which the effect is half-maximal. For the molecule B3, the OD405nm turned out to be 3.5 in [15] and 3.7 in assay [16]. In assay [17], this molecule had a half-maximal effective concentration (EC50) of 0.027 µg/mL.

B4: ADG-2 (antibody, V domains shown)
VH: EVQLVESGGGLVKPGGSLRLSCAASGFTFSSYYMNWVRQAPGKGLEWVSSISEDGYSTYYPDSLKGRFTISRDSAKNSLYLQMNSLRADDTAVYYCARDFSGHTAWAGTGFEYWGQGTLVTVSS
VL: QSVLTQPPSVSGAPGQRITISCTGSSSNIGAGYDVHWYQQLPGTAPKLLIYGSSSRNSGVPDRFSGSKSGTSASLAITGLQAEDEADYYCQSYDSSLSVLYTFGTGTKVTVL
With B4, the AUC in assay [10] was determined as 3; in [11], 3; in assay [12] it was 4. Further, the % binding inhibition came out at 80% in assay [13], 96% in assay [14] and 95% in assay [18].

B5: Cv2.3235 (recombinant human IgG1) (antibody)
heavy: EVQLVESGGGLIQPGGSLRLSCAASGFTVSRNYMSWVRQAPGKGLEWVSVIYSGGSTFYADSVKGRFTISRDNSKNTLYLQMNSLRAEDTAVYYCARDGDYYGMDVWGQGTTVTVSSASTKGPSVFPLAPSSKSTSGGTAALGCLVKDYFPEPVTVSWNSGALTSGVHTFPAVLQSSGLYSLSSVVTVPSSSLGTQTYICNVNHKPSNTKVDKKVEPKSCDKTHTCPPCPAPELLGGPSVFLFPPKPKDTLMISRTPEVTCVVVDVSHEDPEVKFNWYVDGVEVHNAKTKPREEQYNSTYRVVSVLTVLHQDWLNGKEYKCKVSNKALPAPIEKTISKAKQPREPQVYTLPPSRDELTKNQVSLTCLVKGFYPSDIAVEWESNGQPENNYKTTPPVLDSDGSFFLYSKLTVDKSRWQQGNVFSCSVMHEALHNHYTQKSLSLSPGK
light: DIQMTQSPSFLSASVGDRVTITCRASQGISSFLAWYQQKPGKAPKLLIYGASTLQSGVTSRFSGSGSGTEFTLTISSLQPEDFATYYCQRLDSYPPITFGQGTRLEIKRTVAAPSVFIFPPSDEQLKSGTASVVCLLNNFYPREAKVQWKVDNALQSGNSQESVTEQDSKDSTYSLSSTLTLSKADYEKHKVYACEVTHQGLSSPVTKSFNRGEC
The EC50 (read off the curve) is the concentration at which the effect is half-maximal. Consider B5, for which, in assay [15], the 50% effective concentration (EC50 (read off the curve)) turned out to be 0.3 µg/mL. The AUC in [1] and in [2] was 1 throughout. The AUC (RBD bind.) is 6 in assay [3], 13 in [4] and 12 in assay [5]. Moreover, the AUC (RBD block.) in assay [6] is 9; in assay [7], 71; in assay [8], 111. The AUC of blocking in assay [9] worked out at 0.

These data come from US20240336672A1.
